In patent US5618790A, “Protease mediated drug delivery system” (Queen's University at Kingston, priority 1994, dated 1997):
Starred links: 1 amine or outer side, 2 acyl side, 3 side chain; linkers in the order of their positions; H or OH if unused. Positions of bridges follow the written chain, without caps; N, C: chain ends. Residues, ends and D or L forms follow the SMILES beside them. Chains are numbered I, II in the order given. X1 = CCC1=C(C)c2cc3[nH]c(cc4nc(cc5[nH]c(cc1n2)c(C)c5CCC(=O)[*:1])C(CCC(=O)[*:2])=C4C)c(C)c3CC

Legend:
[1] = Solubility of the purified compound; format: physicochemical
Source text: The purified compound was a purple-red powder that was quite soluble in water in neutral pH, in isotonic saline for injection (U.S.P.), and in fresh heparinized human blood and plasma. Aqueous solutions were strongly fluorescent when exposed to 410 nm light.

[2] = Fluorescence in heparinized whole blood and plasma; format: in vitro ADME; settings: heparinized whole blood and plasma samples; spectrophotofluorometer
Experimental: Aliquots of the porphyrin compound of Example 1 were added to heparinized whole blood and plasma samples which were then examined by spectrophotofluorometer.

[3] = system: Clostridium perfringens; settings: mouse, in vivo, 20 mg/kg
[4] = Toxicity after intraperitoneal injection into mice; format: in vivo; settings: intraperitoneally, dosages up to 20 mg/kg body weight
Experimental: The porphyrin compound of Example 1 was injected intraperitoneally into mice at dosages up to 20 mg/kg body weight.

With `CCC1=C(C)c2cc3[nH]c(cc4nc(cc5[nH]c(cc1n2)c(C)c5CCC(=O)NCC(=O)N1CCC[C@H]1C(=O)N[C@@H](CC(C)C)C(=O)NCC(=O)N1CCC[C@H]1C(=O)N[C@@H](C)C(=O)N[C@@H](CCCCN)C(=O)N[C@@H](CCCCN)C(=O)N[C@@H](CCCCN)C(=O)N[C@@H](CCCCN)C(=O)O)C(CCC(=O)NCC(=O)N1CCC[C@H]1C(=O)N[C@@H](CC(C)C)C(=O)NCC(=O)N1CCC[C@H]1C(=O)N[C@@H](C)C(=O)N[C@@H](CCCCN)C(=O)N[C@@H](CCCCN)C(=O)N[C@@H](CCCCN)C(=O)N[C@@H](CCCCN)C(=O)O)=C4C)c(C)c3CC` [porphyrin compound of Example 1, mesoporphyrin IX (Gly--Pro--Leu--Gly--Pro--Ala--Lys--Lys--Lys--Lys)2] (I: GPLGPAKKKK-OH / II: GPLGPAKKKK-OH; linker I:N-II:N via X1) the solubility ([1]; fresh heparinized human blood and plasma) was “quite soluble”, the solubility ([1]; isotonic saline for injection (U.S.P.)) was “quite soluble” and the solubility ([1]; water in neutral pH) was “quite soluble”. The “effect on fluorescence intensity (stability of the collagenase sensitive peptide)” value [2] was “No effect on fluorescence intensity”, the “increase of porphyrin fluorescence relative to the background fluorescence (factor)” value [3] was “three” and the toxic effects [4] was “No toxic effects were observed”.
